Reference: PMC6168491, “Sin3A recruits Tet1 to the PAH1 domain via a highly conserved Sin3-Interaction Domain” (Scientific Reports, 2018)
Changes are numbered by the printed parent chain. Names and notes keep the numbering of the source. Like-named read-outs stand apart in the source and are kept apart here.

T1: PAH1(115–212) for NMR (UniProt Q60520 115-212)
T1 construct: Sin3A PAH1 domain, residues 115–212; Same construct as m29; also called apo-PAH1; 15N-labelled PAH1(115–212); source: 15N labelled in M9 minimal media
T1 sequence (looked up): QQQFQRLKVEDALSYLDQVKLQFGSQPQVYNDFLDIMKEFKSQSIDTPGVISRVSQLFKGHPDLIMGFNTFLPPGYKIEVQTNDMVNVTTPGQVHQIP

B1: Tet1-SID(878–911) for NMR (domain or fragment, UniProt Q3URK3 861-894, looked up)
chain: LSLMKDRRLTLEQVVAIEALTQLSEAPSESSSPS
notes: Same construct as m24; also called WT
B2: Tet1-SID(878–911) L900A for NMR (domain or fragment, UniProt Q3URK3 861-894, looked up)
chain: B1 chain with L23A
notes: Tag removal for NMR was conducted as needed
B3: Tet1-SID(878–911) I894A for NMR (domain or fragment, UniProt Q3URK3 861-894, looked up)
chain: B1 chain with I17A
notes: as for B2
B4: Tet1-SID(878–911) T898A for NMR (domain or fragment, UniProt Q3URK3 861-894, looked up)
chain: B1 chain with T21A
notes: as for B2
B5: Tet1-SID(878–911) T898E for NMR (domain or fragment, UniProt Q3URK3 861-894, looked up)
chain: B1 chain with T21E
notes: as for B2

Molecular target: T1, PAH1(115–212) for NMR
Experiment: NMR titration; 15N-HSQC of 150 µM 15N-labelled PAH1(115–212) with 150 µM unlabelled Tet1(878–911) (1:1; also sub-stoichiometric ratio); 303 K; 20 mM Tris-HCl pH 7.4, 50 mM NaCl, 1 mM DTT; average minimal shift analysis

| Molecule | Δδmin (average minimal shift, relative to the WT complex) (both partners purified) | also measured |
| --- | --- | --- |
| Tet1-SID(878–911) L897A for NMR (from UniProt Q3URK3 861-894) (domain or fragment) | – | Δδmin (average minimal shift, relative to the WT complex): 0.118; Δδmin (average minimal shift, relative to the apo-protein): 0.061 |
| B1 | – | Kd (both partners purified): < 100 nM |
| B2 | 0.074 | – |
| B3 | 0.061 | – |
| B4 | 0.026 | – |
| B5 | 0.038 | – |
